Measured values from patent US20060110789.

Key:
[1] = biological target: diketide-ACP2(2) (DEBS ACP2 with its natural C-terminal linker, loaded with diketide) (UniProt Q03131)
[2] = biological target: diketide-ACP2(4) (DEBS ACP2 with the C-terminal linker of module 4, loaded with diketide) (UniProt Q03131)
[3] = biological target: diketide-ACP4(4) (DEBS ACP4 with its natural C-terminal linker, loaded with diketide) (UniProt Q03132)
[4] = biological target: diketide-ACP4(Ø) (DEBS ACP4 without linker, loaded with diketide) (UniProt Q03132)
DEBS-2 = DEBS-2 (UniProt Q03132)

Substance: (5)M5+TE (module 5 of DEBS with its own N-terminal linker, fused to thioesterase)
- triketide lactone formation at 20 µM substrate (FIG. 28 D) [1]: no product was detected at the same substrate concentrations
- kcat/KM, fold decrease against the matched reaction (FIG. 28 C) [2]: fell approximately 20-fold and 150-fold, respectively
- triketide lactone formation at 20 µM substrate (FIG. 28 C) [2]: transfer of diketide from the donor ACP to the acceptor module occurred at 20 µM substrate concentration
- conversion of acyl-ACP into triketide lactone in 1 h (20 µM 4, 1 µM (5)M5+TE) [3]: 70% of the acyl-ACP was converted into triketide lactone in 1 h
- elongation rate constant (kcat) with 4b, fold increase against the NAC thioester 2b [3]: the elongation rate constant (kcat) increases at least 25-fold
- k60 µM (printed there as kcat/KM) [3]: kcat/KM values of 1.4 min-1 and 9.3 min^-1
- kcat/KM [3]: kcat/KM values of 390 min^-1 mM^-1 and 290 min^-1mM^-1
- triketide lactone formation at 20 µM substrate (FIG. 28 A) [3]: transfer of diketide from the donor ACP to the acceptor module occurred at 20 µM substrate concentration
- kcat/KM (FIG. 29 A) [4]: 68.3 M⁻¹ s⁻¹

Substance: (5)M6+TE (module 6 of DEBS with the N-terminal linker of module 5, with thioesterase)
- kcat/KM, fold decrease against diketide-ACP4(4) with the same module [4]: the kcat/KM values drop approximately 70-300 fold

Substance: (3)M5+TE (module 5 of DEBS with the N-terminal linker of module 3, fused to thioesterase)
- kcat/KM, fold decrease against the matched reaction (FIG. 28 B) [3]: fell approximately 20-fold and 150-fold, respectively
- triketide lactone formation at 20 µM substrate (FIG. 28 B) [3]: transfer of diketide from the donor ACP to the acceptor module occurred at 20 µM substrate concentration
- kcat/KM (FIG. 29 B) [4]: 41.7 M⁻¹ s⁻¹

Substance: ery M1-RAL rifM5+ERL
- 6-dEB production on co-transformation in S. coelicolor (with DEBS-3) (DEBS-2): Yes (dEB6)
